# Assay results taken from patent US20240425885.
# What was measured:
# Test in all cases: cleavage_in_vitro
# [1] = tested on: T1, OMNI-92 (metagenomic, unknown); details: TXTL; PAM NNNNRYGA
# T1 sequence: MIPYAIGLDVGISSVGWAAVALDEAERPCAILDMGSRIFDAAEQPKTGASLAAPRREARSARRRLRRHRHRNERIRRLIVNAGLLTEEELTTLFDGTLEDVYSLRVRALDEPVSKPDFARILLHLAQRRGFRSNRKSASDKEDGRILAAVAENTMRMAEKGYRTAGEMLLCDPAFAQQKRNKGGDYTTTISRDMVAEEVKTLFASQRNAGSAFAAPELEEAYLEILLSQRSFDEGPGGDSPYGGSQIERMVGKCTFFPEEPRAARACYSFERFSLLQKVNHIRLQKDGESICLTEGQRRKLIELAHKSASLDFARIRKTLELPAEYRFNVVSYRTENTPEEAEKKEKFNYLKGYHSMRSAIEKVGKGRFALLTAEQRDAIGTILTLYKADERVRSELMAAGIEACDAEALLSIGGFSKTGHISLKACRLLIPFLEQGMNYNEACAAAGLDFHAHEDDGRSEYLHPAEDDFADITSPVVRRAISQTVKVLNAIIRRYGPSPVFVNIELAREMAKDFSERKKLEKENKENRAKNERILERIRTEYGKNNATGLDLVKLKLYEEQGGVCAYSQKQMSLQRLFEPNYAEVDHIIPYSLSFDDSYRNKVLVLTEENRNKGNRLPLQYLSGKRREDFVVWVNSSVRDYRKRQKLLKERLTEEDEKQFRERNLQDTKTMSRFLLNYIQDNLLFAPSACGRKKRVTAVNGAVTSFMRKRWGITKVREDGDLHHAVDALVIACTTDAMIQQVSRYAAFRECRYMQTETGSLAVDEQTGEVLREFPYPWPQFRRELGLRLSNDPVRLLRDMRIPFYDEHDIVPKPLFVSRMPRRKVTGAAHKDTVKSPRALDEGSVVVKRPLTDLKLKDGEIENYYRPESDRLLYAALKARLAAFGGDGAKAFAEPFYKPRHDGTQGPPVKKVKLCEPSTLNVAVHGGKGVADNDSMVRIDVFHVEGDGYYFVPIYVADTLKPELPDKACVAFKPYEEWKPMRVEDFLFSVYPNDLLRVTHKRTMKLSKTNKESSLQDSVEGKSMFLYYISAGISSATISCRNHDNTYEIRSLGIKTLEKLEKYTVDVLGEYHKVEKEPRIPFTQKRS
# [2] = tested on: T2, OMNI-136 (metagenomic, unknown); details: TXTL; PAM NNDRCNAA
# T2 sequence: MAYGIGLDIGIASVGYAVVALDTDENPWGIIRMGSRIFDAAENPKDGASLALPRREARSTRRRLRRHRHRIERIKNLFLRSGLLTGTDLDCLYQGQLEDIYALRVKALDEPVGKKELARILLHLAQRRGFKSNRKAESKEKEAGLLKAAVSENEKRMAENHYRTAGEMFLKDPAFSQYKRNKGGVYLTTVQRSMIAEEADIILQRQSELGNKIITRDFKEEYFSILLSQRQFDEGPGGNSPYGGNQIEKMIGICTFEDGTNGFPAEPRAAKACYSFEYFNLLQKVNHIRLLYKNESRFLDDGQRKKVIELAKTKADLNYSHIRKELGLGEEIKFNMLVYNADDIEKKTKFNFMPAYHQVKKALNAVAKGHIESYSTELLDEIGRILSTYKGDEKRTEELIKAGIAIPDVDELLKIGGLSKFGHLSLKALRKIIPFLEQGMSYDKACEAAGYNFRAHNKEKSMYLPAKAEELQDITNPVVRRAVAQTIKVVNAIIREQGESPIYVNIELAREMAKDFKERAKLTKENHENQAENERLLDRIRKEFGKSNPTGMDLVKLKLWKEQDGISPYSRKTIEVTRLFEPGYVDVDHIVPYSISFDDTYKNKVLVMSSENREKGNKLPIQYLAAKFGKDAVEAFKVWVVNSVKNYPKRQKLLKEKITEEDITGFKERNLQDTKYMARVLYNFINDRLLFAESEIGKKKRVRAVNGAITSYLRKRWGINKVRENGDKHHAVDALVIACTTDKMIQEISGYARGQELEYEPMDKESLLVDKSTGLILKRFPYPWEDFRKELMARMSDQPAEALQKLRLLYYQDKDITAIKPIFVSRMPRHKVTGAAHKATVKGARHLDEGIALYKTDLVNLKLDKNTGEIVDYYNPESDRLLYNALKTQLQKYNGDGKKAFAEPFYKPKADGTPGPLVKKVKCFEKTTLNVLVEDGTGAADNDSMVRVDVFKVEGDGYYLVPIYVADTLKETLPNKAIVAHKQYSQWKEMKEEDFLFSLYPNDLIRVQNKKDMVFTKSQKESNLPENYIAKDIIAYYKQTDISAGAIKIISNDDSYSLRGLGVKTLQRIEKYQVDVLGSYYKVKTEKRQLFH
# [3] = tested on: T3, OMNI-133 (metagenomic, unknown); details: TXTL; PAM NNTAMCNN
# T3 sequence: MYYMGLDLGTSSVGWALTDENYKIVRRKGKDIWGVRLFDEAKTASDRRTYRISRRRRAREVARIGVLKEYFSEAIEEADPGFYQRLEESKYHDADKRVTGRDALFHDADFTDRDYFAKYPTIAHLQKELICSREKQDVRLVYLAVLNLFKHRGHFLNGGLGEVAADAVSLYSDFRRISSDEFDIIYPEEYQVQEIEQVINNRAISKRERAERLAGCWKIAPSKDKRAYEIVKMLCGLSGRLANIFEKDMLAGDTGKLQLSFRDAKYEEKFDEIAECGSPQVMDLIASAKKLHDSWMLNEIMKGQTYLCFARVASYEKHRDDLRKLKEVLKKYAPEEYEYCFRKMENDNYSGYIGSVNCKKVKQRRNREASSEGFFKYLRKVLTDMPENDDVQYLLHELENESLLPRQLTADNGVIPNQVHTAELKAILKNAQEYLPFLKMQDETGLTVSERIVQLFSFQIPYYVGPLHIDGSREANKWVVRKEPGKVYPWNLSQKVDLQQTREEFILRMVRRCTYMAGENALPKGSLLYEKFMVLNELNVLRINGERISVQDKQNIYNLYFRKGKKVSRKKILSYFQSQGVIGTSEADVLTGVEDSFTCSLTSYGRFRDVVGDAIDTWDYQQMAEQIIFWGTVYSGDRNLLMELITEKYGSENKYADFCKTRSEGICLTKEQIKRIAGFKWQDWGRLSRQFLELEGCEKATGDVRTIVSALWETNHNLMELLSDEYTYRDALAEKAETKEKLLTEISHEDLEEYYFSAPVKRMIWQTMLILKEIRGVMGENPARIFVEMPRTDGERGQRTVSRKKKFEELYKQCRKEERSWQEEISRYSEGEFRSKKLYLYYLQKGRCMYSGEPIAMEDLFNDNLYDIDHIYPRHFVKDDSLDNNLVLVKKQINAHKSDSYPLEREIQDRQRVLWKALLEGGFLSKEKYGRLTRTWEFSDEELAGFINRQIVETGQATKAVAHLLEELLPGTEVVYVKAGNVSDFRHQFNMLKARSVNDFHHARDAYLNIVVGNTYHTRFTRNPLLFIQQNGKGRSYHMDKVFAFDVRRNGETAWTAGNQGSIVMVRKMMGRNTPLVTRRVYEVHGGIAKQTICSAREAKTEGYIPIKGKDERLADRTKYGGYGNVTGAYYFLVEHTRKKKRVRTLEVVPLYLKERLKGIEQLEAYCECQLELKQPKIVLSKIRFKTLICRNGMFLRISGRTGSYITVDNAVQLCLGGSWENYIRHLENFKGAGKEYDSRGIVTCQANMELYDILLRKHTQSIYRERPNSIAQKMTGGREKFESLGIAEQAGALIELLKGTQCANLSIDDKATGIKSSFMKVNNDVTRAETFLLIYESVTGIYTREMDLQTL
# [4] = tested on: T4, OMNI-135 (metagenomic, unknown); details: TXTL; PAM NNWACCNN
# T4 sequence: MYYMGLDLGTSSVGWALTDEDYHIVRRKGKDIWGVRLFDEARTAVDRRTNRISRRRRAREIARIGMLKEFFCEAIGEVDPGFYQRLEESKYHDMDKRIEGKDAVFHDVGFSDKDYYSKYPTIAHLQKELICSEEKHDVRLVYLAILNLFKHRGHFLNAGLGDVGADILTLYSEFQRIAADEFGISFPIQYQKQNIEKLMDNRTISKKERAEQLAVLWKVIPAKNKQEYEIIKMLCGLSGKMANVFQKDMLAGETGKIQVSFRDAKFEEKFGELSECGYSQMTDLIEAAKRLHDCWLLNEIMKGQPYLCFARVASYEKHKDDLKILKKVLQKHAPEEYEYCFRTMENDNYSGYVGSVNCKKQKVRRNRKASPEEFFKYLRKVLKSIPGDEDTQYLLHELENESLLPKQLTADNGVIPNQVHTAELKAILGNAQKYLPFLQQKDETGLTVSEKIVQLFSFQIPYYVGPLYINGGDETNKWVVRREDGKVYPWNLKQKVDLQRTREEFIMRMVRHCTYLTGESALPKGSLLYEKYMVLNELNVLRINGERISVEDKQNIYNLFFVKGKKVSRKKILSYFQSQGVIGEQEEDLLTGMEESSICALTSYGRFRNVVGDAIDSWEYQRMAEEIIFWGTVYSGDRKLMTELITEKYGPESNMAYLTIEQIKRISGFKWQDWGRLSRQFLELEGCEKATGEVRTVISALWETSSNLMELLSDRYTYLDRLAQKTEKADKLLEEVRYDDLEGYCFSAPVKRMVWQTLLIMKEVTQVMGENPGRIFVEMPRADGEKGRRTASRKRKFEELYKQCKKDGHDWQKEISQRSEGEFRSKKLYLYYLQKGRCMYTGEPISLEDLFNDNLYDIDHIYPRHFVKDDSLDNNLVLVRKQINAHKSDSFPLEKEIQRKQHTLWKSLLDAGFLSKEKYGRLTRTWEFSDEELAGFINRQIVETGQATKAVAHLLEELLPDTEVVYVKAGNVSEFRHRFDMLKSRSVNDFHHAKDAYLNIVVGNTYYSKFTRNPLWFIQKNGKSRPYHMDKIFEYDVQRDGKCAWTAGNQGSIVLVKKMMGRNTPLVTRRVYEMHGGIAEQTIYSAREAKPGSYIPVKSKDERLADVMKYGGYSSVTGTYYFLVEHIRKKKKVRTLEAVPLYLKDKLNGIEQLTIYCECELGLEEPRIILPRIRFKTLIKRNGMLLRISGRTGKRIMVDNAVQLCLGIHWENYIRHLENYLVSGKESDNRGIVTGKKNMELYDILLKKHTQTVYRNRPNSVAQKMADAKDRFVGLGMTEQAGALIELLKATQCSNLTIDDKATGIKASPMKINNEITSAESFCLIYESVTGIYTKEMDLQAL
sequence,measurement,setting,value
GGAAGAGCAGAGCCUUGGUCUCGUUGUAGUUCCCUGAUCGUGAAAACGAUCAGGUUGCUACAAUAAGGUAGUACACCGAAGAGCUCUAACGCCCCGUUUUGCGGGGCGUUAUCUCUUUUUUU / GGAAGAGCAGAGCCTTGGTCTCNNNNNNNN / NNNNNNNNGAGACCAAGGCTCTGCTCTTCC [T2 sgRNA 3 V1 ; T2 protospacer + 8N PAM library (pbPOS T2)],activity (1-depletion score),[1],0.97
GGAAGAGCAGAGCCUUGGUCUCGUUGUAGUUCCCUGUUAAUGAAAAUUUUCGGGUUACUAUGAUAAGGUAGAACACCGAAAAGCUCUAACGCCUUGCCAUUUGGUGAGGCGUUAUCUUUUUU / GGAAGAGCAGAGCCTTGGTCTCNNNNNNNN / NNNNNNNNGAGACCAAGGCTCTGCTCTTCC [T2 sgRNA 36 V1 ; T2 protospacer + 8N PAM library (pbPOS T2)],activity (1-depletion score),[2],0.97
GGAAGAGCAGAGCCUUGGUCUCGUUUGAGAACCUUGUAAGAAAUUACAAGGUGAGUGCAAAUAAGGAUUUUUCCGAAAUCACUCCUCAUAAGAGUCCGCAUUGUGCGGUGAAAAGACUCUGCCAAGAGUCUUUUUU / GGAAGAGCAGAGCCTTGGTCTCNNNNNNNN / NNNNNNNNGAGACCAAGGCTCTGCTCTTCC [T2 sgRNA 33 V1 ; T2 protospacer + 8N PAM library (pbPOS T2)],activity (1-depletion score),[3],0.95
GGAAGAGCAGAGCCUUGGUCUCGUUUGAGAACCUUGUAAGAAAUUACAAGGUGAGUGCAAAUAAGGAUUUUUCCGAAAUCACUCCUCAUGGAUGUCCGCAUUGUGCGGUGAAAAAGACUCUGUUUAGAGUCUUUUUU / GGAAGAGCAGAGCCTTGGTCTCNNNNNNNN / NNNNNNNNGAGACCAAGGCTCTGCTCTTCC [T2 sgRNA 35 V1 ; T2 protospacer + 8N PAM library (pbPOS T2)],activity (1-depletion score),[4],0.95
